The target of test [1] is T1, CD28 (Homo sapiens, UniProt P10747). The experiment in a line: Flow binding to Jurkat/IL2 reporter cells (CD28). Details: host or cells: Jurkat cells expressing an IL-2-luciferase reporter. How it is done: (§1) Binding of selected immunomodulatory fusion proteins to cognate binding partners was assessed. […] Cells were sorted in a Bio-Rad S3 Cell Sorter (Bio-Rad Corp., USA) to >98% purity. Jurkat/IL2 reporter cells, which endogenously express CD28, were used to detect binding to CD28.
(§2) For staining and analysis by flow cytometry, 100,000 cells of appropriate transfected cells were plated in 96-well round bottom plates. Cells were spun down and resuspended in staining buffer (phosphate buffered saline (PBS), 1% bovine serum albumin (BSA), and 0.1% sodium azide) for 20 minutes to block non-specific binding. […] Primary staining was performed on ice for 45 minutes, before washing cells in staining buffer twice. Phycoerythrin (PE)-conjugated anti-human Fc (Jackson ImmunoResearch, USA) was diluted 1:150, added to cells and incubated another 30 minutes on ice. Cells were then washed twice with 150 μL/well stain buffer, fixed in 2% formaldehyde/PBS, and analyzed on Intellicyt flow cytometer (Intellicyt Corp., USA). PE Mean Fluorescence Intensity (MFI) was calculated for each cell type with FlowJo Version 10 software (FlowJo LLC, USA).
(§3) Binding assays were carried out to assess the specificity and affinity of multivalent proteins to cell-expressed CTLA-4, CD28, and PD-L1 counter structures.
(§4) The EC50 for binding also was determined.

For test [2], the target named is T1, CD28. The experiment in a line: Jurkat/IL2 + CHO/OKT3 +/- PD-L1 reporter assay: PD-L1-dependent CD28 costimulation. The following applies: Jurkat/IL2 + CHO/OKT3/PD-L1. On the set-up: host or cells: Jurkat cells expressing an IL-2-luciferase reporter. It counts as cell-based. An outline of the steps: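 Jurkat reporter cells (100,000/well) preincubated 15 min at room temperature with test protein, then cocultured 5 h at 37 °C with CHO aAPCs bearing anti-CD3 scFv (OKT3) with or without PD-L1. Luciferase luminescence (RLU) read after lysis-substrate addition.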
A general note: A reporter such as luciferase makes a cellular process visible.

Test [3] addresses huPD-L1 (Homo sapiens, UniProt Q9NZQ7). The experiment in a line: Flow binding to CHO cells stably expressing PD-L1. On the set-up: huCTLA4 and huPD-L1, full-length mammalian surface expression constructs were generated; expressed in transfected cells; host or cells: CHO cells, lentiviral transduction, sorted to >98% purity. The following applies: CHO cells stably expressing PD-L1. The method, boiled down: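 Fusion proteins bound to CHO cells stably expressing CTLA4 or PD-L1, or to Jurkat/IL2 reporter cells with endogenous CD28, for 45 min on ice after blocking in PBS/1% BSA. Detection with PE anti-human Fc by flow cytometry; PE MFI per cell type and binding EC50 determined.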

For test [4], the target named is huCTLA4 (Homo sapiens, UniProt P16410). Briefly: Flow binding to CHO cells stably expressing CTLA4. The following applies: Table E14; CHO cells stably expressing CTLA4; 33.3 nM. On the set-up: huCTLA4 and huPD-L1, full-length mammalian surface expression constructs were generated; expressed in transfected cells; host or cells: CHO cells, lentiviral transduction, sorted to >98% purity. How it is done: as §1, §2, §3, §4
Chain of huCTLA4 (P16410 36-223): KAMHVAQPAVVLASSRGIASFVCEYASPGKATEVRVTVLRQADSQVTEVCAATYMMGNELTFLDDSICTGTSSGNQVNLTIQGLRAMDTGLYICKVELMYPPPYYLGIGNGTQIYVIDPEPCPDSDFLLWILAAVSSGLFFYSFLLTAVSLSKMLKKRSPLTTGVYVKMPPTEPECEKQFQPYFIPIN

Where [5] appears, read: Table E11, Jurkats (CD28), 33.3 nM.
Where [6] appears, read: Table E23, CD80 IgV-Fc (inert) at 33.3 nM, Jurkat (CD28).
[7] abbreviates: Table E23, CD80 IgV-Fc (inert) at 33.3 nM.
Setting [8] is: Table E19, Jurkats (CD28), 33.3 nM.

Chain of huPD-L1 (Q9NZQ7 19-290): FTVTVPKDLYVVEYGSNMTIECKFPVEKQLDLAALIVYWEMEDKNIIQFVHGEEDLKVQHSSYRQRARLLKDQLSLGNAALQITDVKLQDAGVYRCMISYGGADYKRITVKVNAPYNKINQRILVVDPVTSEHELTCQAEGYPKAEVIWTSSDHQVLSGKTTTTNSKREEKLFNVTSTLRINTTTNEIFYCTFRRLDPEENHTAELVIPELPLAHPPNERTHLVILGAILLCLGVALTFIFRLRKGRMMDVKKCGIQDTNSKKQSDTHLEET

B1: E35D/M47L/V68M/E95V/L97Q (protein, UniProt P33681 35-288, looked up, variant E35D M47L V68M E95V L97Q)
T-lymphocyte activation …: VIHVTKEVKEVATLSCGHNVSVEELAQTRIYWQKDKKMVLTMMSGDLNIWPEYKNRTIFDITNNLSIMILALRPSDEGTYECVVLKYEKDAFKRVHQAEVTLSVKADFPTPSISDFEIPTSNIRRIICSTSGGFPEPHLSWLENGEELNAINTTVSQDPETELYAVSSKLDFNMTTNHSFMCLIKYGHLRVNQTFNWNTTKQEHFPDNLLPSWAITLISVNGIFVICCLTYCFAPRCRERRRNERLRRESVRPV
modifications: Fc fusion
As for B1, the “CD28 MFI at 33.3 nM” value in test [1] (setting [5]) came to 14. Further, the “Relative Luciferase Units (RLU), CD80 Cone 5.0 nM” value in test [2] (Table E13, 5.0 nM) is 1086 RLU. For the same molecule, in test [3] (Table E11, 33.3 nM), the “PD-L1 MFI at 33.3 nM” value was determined as 18600.

B2: E35D/D46V/M47L/V68M/L85Q/E88D GS(G4S)3 (protein, UniProt P33681 35-288, looked up, variant E35D D46V M47L V68M L85Q E88D)
T-lymphocyte activation …: VIHVTKEVKEVATLSCGHNVSVEELAQTRIYWQKDKKMVLTMMSGVLNIWPEYKNRTIFDITNNLSIMILALRPSDEGTYECVVQKYDKDAFKREHLAEVTLSVKADFPTPSISDFEIPTSNIRRIICSTSGGFPEPHLSWLENGEELNAINTTVSQDPETELYAVSSKLDFNMTTNHSFMCLIKYGHLRVNQTFNWNTTKQEHFPDNLLPSWAITLISVNGIFVICCLTYCFAPRCRERRRNERLRRESVRPV
modifications: GS(G4S)3 linker
B2: in test [1] (Table E25, linker variants, 33.3 nM, Jurkats (CD28)), the “CD28 MFI at 33.3 nM” value worked out at 267. Also, the “Relative Luciferase Units (RLU), CD80 Conc 5.0 nM” value in test [2] (Table E26, linker variants, 5.0 nM) is reported as 1592 RLU. Besides, in test [3] (Table E25, linker variants, 33.3 nM), the “PD-L1 MFI at 33.3 nM” value was determined as 22596.

B3: H18V/E35D/M47V/V68M/A71G/D90G (protein, UniProt P33681 35-288, looked up, variant H18V E35D M47V V68M A71G D90G)
T-lymphocyte activation …: VIHVTKEVKEVATLSCGVNVSVEELAQTRIYWQKDKKMVLTMMSGDVNIWPEYKNRTIFDITNNLSIMILGLRPSDEGTYECVVLKYEKGAFKREHLAEVTLSVKADFPTPSISDFEIPTSNIRRIICSTSGGFPEPHLSWLENGEELNAINTTVSQDPETELYAVSSKLDFNMTTNHSFMCLIKYGHLRVNQTFNWNTTKQEHFPDNLLPSWAITLISVNGIFVICCLTYCFAPRCRERRRNERLRRESVRPV
In the case of B3, the “CD28 MFI at 33.3 nM” value in test [1] (setting [6]) was 2115. Moreover, the “Relative Luciferase Units (RLU), CD80 Conc 5.0 nM” value in test [2] (Table E24, 5.0 nM) amounted to 854 RLU. In test [3] (setting [7]), the “PD-L1 MFI at 33.3 nM” value worked out at 43588.

B4: H18Y/E35D/V68M/L85M/R94Q (protein, UniProt P33681 35-288, looked up, variant H18Y E35D V68M L85M R94Q)
T-lymphocyte activation …: VIHVTKEVKEVATLSCGYNVSVEELAQTRIYWQKDKKMVLTMMSGDMNIWPEYKNRTIFDITNNLSIMILALRPSDEGTYECVVMKYEKDAFKQEHLAEVTLSVKADFPTPSISDFEIPTSNIRRIICSTSGGFPEPHLSWLENGEELNAINTTVSQDPETELYAVSSKLDFNMTTNHSFMCLIKYGHLRVNQTFNWNTTKQEHFPDNLLPSWAITLISVNGIFVICCLTYCFAPRCRERRRNERLRRESVRPV
B4: the “CD28 MFI at 33.3 nM” value is given as 14 in test [1] (setting [5]) and 962 in test [1] (Table E16, consensus variants, Jurkats (CD28), 33.3 nM). For the same molecule, the “Relative Luciferase Units (RLU), CD80 Cone 5.0 nM” value in test [2] (Table E13, 5.0 nM) is reported as 195 RLU; in test [2] (Table E17, consensus variants, 5.0 nM), 2215 RLU. Further, the “PD-L1 MFI at 33.3 nM” value in test [3] (Table E11, 33.3 nM) is given as 14410; in test [3] (Table E16, consensus variants, 33.3 nM), 9283.

B5: H18Y/A26P/E35D/M47V/V68M/A71G (protein, UniProt P33681 35-288, looked up, variant H18Y A26P E35D M47V V68M A71G)
T-lymphocyte activation …: VIHVTKEVKEVATLSCGYNVSVEELPQTRIYWQKDKKMVLTMMSGDVNIWPEYKNRTIFDITNNLSIMILGLRPSDEGTYECVVLKYEKDAFKREHLAEVTLSVKADFPTPSISDFEIPTSNIRRIICSTSGGFPEPHLSWLENGEELNAINTTVSQDPETELYAVSSKLDFNMTTNHSFMCLIKYGHLRVNQTFNWNTTKQEHFPDNLLPSWAITLISVNGIFVICCLTYCFAPRCRERRRNERLRRESVRPV
On to B5, for which, in test [1] (setting [6]), the “CD28 MFI at 33.3 nM” value is 6911. Further, in test [2] (Table E24, 5.0 nM), the “Relative Luciferase Units (RLU), CD80 Conc 5.0 nM” value is given as 821 RLU. In addition, in test [3] (setting [7]), the “PD-L1 MFI at 33.3 nM” value is reported as 51521.

B6: H18Y/E35D/M47V/V68M/A71G (protein, UniProt P33681 35-288, looked up, variant H18Y E35D M47V V68M A71G)
T-lymphocyte activation …: VIHVTKEVKEVATLSCGYNVSVEELAQTRIYWQKDKKMVLTMMSGDVNIWPEYKNRTIFDITNNLSIMILGLRPSDEGTYECVVLKYEKDAFKREHLAEVTLSVKADFPTPSISDFEIPTSNIRRIICSTSGGFPEPHLSWLENGEELNAINTTVSQDPETELYAVSSKLDFNMTTNHSFMCLIKYGHLRVNQTFNWNTTKQEHFPDNLLPSWAITLISVNGIFVICCLTYCFAPRCRERRRNERLRRESVRPV
As for B6, the “CD28 MFI at 33.3 nM” value in test [1] (setting [6]) came to 3227. Besides, in test [2] (Table E24, 5.0 nM), the “Relative Luciferase Units (RLU), CD80 Conc 5.0 nM” value was found to be 963 RLU. Moreover, the “PD-L1 MFI at 33.3 nM” value in test [3] (setting [7]) is on record as 64919.

B7: E35D/M47LN68M/A71G/L85Q/D90G (protein, UniProt P33681 35-288, looked up, variant E35D M47L V68M A71G L85Q D90G)
T-lymphocyte activation …: VIHVTKEVKEVATLSCGHNVSVEELAQTRIYWQKDKKMVLTMMSGDLNIWPEYKNRTIFDITNNLSIMILGLRPSDEGTYECVVQKYEKGAFKREHLAEVTLSVKADFPTPSISDFEIPTSNIRRIICSTSGGFPEPHLSWLENGEELNAINTTVSQDPETELYAVSSKLDFNMTTNHSFMCLIKYGHLRVNQTFNWNTTKQEHFPDNLLPSWAITLISVNGIFVICCLTYCFAPRCRERRRNERLRRESVRPV
For the molecule B7, in test [4], the “CTLA4 MFI at 33.3 nM” value was 10332. In test [1] (Table E14, Jurkats (CD28), 33.3 nM), the “CD28 MFI at 33.3 nM” value is reported as 1400.

B8: V22D/E24D/E35D/M47L/V68M (protein)
chain: VIHVTKEVKEVATLSCGHNVSDEDLAQTRIYWQKDKKMVLTMMSGDLNIWPEYKNRTIFDITNNLSIMILALRPSDEGTYECVVLKYEKDAFKREHLAEVTLSVKADFPTPSISDFETPTSNIRRIICSTSGGFPEPHLSWLENGEELNAINTTVSQDPETELYAVSSKLDFNMTTNHSFMCLIKYGHLRVNQTFNWNTTKQEHFPDN
modifications: CD80 v383 ECD
In the case of B8, in test [1] (setting [5]), the “CD28 MFI at 33.3 nM” value came out at 1254. The “Relative Luciferase Units (RLU), CD80 Cone 5.0 nM” value in test [2] (Table E13, 5.0 nM) is reported as 974 RLU. For the same molecule, the “PD-L1 MFI at 33.3 nM” value in test [3] (Table E11, 33.3 nM) amounted to 15418.

B9: M47L/L85Q (protein)
chain: VIHVTKEVKEVATLSCGHNVSVEELAQTRIYWQKEKKMVLTMMSGDLNIWPEYKNRTIFDITNNLSIVILALRPSDEGTYECVVQKYEKDAFKREHLAEVTLSVKAD
Turning to B9, the “CD28 MFI at 33.3 nM” value in test [1] (setting [8]) was 88.1. For the same molecule, the “Relative Luciferase Units (RLU), CD80 Conc 5.0 nM” value in test [2] (Table E21, CD80 Conc 5.0 nM) came out at 416 RLU. Also, in test [3] (Table E19, 33.3 nM), the “PD-L1 MFI at 33.3 nM” value is 5801.

B10: E35D/D46V/M47V/V68M/K89N (protein)
chain: VIHVTKEVKEVATLSCGHNVSVEELAQTRIYWQKDKKMVLTMMSGVVNIWPEYKNRTIFDITNNLSIMILALRPSDEGTYECVVLKYENDAFKREHLAEVTLSVKAD
As for B10, the “CD28 MFI at 33.3 nM” value in test [1] (setting [8]) was 2119. For the same molecule, in test [2] (Table E21, CD80 Conc 5.0 nM), the “Relative Luciferase Units (RLU), CD80 Conc 5.0 nM” value amounted to 817 RLU. For the same molecule, the “PD-L1 MFI at 33.3 nM” value in test [3] (Table E19, 33.3 nM) is given as 21603.

B11: A26E/E35D/V68M/A71G (protein)
chain: VIHVTKEVKEVATLSCGHNVSVEELEQTRIYWQKDKKMVLTMMSGDMNIWPEYKNRTIFDITNNLSIMILGLRPSDEGTYECVVLKYEKDAFKREHLAEVTLSVKAD
Regarding B11, in test [1] (Table E20, Jurkats (CD28), 33.3 nM), the “CD28 MFI at 33.3 nM” value turned out to be 135. Further, the “Relative Luciferase Units (RLU), CD80 Conc 5.0 nM” value in test [2] (Table E22, CD80 Conc 5.0 nM) is on record as 839 RLU. Moreover, the “PD-L1 MFI at 33.3 nM” value in test [3] (Table E20, 33.3 nM) was 12611.
